# ± gives the uncertainty stated by the source.
# Assay: amyloid nucleation score (Sup35N fusion, yeast selection) (log enrichment); library NNK2; higher = more nucleation; inactive = no reads after selection
# Summary of the method: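 The nucleation score, computed with DiMSum, is the log enrichment of output over input reads, centred on the mode score of non-aggregating sequences. Sequences with under 100 input reads were dropped. Reads were generated by Illumina sequencing of plasmid inserts from psi-negative yeast with Sup35N fused to peptides of 20 random codons, induced with 100 μM copper sulfate for 24 hours and grown 7 days at 30°C on medium lacking adenine and uracil.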
row,Substance,amyloid nucleation score
1,GSVGFVQYAVGNSMTSGIMV,-0.307 ± 0.2
2,GSVTTCSAWYKRRNLDICHR,-0.277 ± 0.22
3,GSVVHLQSCNISLIAYGLHG,8.298 ± 0.054
4,GSVVHQEFFSPSKGFVSSQF,-1.4 ± 0.55
5,GTCLHCGEIRS,-0.293 ± 0.29
6,GTDSL,-0.226 ± 1.1
7,GTDTTIDLNSYGHYYSLCVR,0.334 ± 0.65
8,GTMCFFMCTDYLYGSQTRLG,-0.054 ± 1.1
9,GTTSCISDLQWMGYIVKL,0.039 ± 0.46
10,GTVLMRFGGCLFFVMSRQNC,1.89 ± 0.42
11,GVAGFDTSDNETG,0.543 ± 0.33
12,GVCRDNILRENFGGWSTSRS,0.15 ± 0.46
13,GVDFKVVTKSWIIYNYIIGM,3.07 ± 0.064
14,GVDKKVSSTECIETVSCFIT,inactive
15,GVGVLGVLNYVCWLMQCCGL,0.987 ± 0.22
16,GVGYPVFYWKVSMYSRDSDH,3.38 ± 0.067
17,GVKAASGSSPKRGFYDWVKH,0.307 ± 0.64
18,GVLNAVHCQVYWL,7.869 ± 0.035
19,GVLRENGN,0.284 ± 1.1
20,GVMYSLFRNSSWGGHIMSGK,0.818 ± 0.67
21,GVNKVT,0.115 ± 1
22,GVQETSYVALCSSLVTRTFV,1.16 ± 0.44

row,Substance,amyloid nucleation score
1,GVSVSSLSACPKEDFGSFSE,0.051 ± 0.63
2,GVVARSIVAGNLALIIRRRM,0.253 ± 0.42
3,GVVISCWRLWWDTDMMHR,0.007 ± 0.24
4,GVWIFKYCRNNWFGFLIISA,3.33 ± 0.1
5,GVYICQFIAVISLSAQSLWY,-0.97 ± 1.1
6,GWGFFIDSYQHGLLM,-1.27 ± 0.54
7,GWMCMPAQGAKDNHLLGYLM,-0.533 ± 0.55
8,GWSITGSWFHNMAILLICFR,3.38 ± 0.075
9,GYASTDEVMTLRMYLTSIYT,-0.187 ± 0.55
10,GYDLYLTEWRSVFTAVIANE,-0.055 ± 1.1
11,GYDNTAWELTGGVD,-0.311 ± 0.3
12,GYEWSSVSEQGC,1.27 ± 0.52
13,GYGDGILVSFSC,-0.986 ± 0.76
14,GYIMIPRYPPSKHLCF,-0.545 ± 0.41
15,GYMRSLGHYSADVMEYLYNW,0.052 ± 0.45
16,GYNTRKYWISGYNTTDSPGK,-1.13 ± 0.35
17,GYSLYVYIMDFFTWGNRVII,2.02 ± 0.19
18,GYTTMRKCFAQVEFRTPADT,inactive
19,GYVFHYVSIQL,7.957 ± 0.027
20,GYVSRDSFVLYWPSRNDCLA,0.276 ± 0.22
21,GYYAPIPLKCVDSEASLRYR,0.308 ± 0.36
22,HASNH,-0.689 ± 0.42

row,Substance,amyloid nucleation score
1,HAVWSVFCEFIVRQCYGLYF,-1.37 ± 0.41
2,HCGTHVYYGAIWV,-0.483 ± 0.27
3,HCGYEAIILWGVRFCGILQR,-0.357 ± 1.1
4,HCKLVFRGVMTESHSSACGG,2.82 ± 0.071
5,HCLGRLVASWNPQWEFHRRT,0.103 ± 0.38
6,HCSDFDLVSAKWSSQWARNG,1.13 ± 0.4
7,HCSQNYMVTRKIFSLWIPYV,inactive
8,HCSVSLTFFVLQTPL,4.79 ± 0.069
9,HCTDGFLMAYVSFSRGMIIM,inactive
10,HCVDLLREMQ,0.621 ± 0.43
11,HCVIQSSYLRD,-0.337 ± 0.54
12,HCYSRPFESSSFMNSVSLKY,-0.149 ± 0.76
13,HDLKLV,0.266 ± 0.41
14,HDMRHYKGSPYYLNYWYGDG,-0.623 ± 0.55
15,HDQGSTMFCGRNAATLSQCW,1.54 ± 0.25
16,HEAYLPRLNDVTTSPSPCPY,0.487 ± 0.62
17,HEHSDVRKKVGWMAFWR,4.42 ± 0.06
18,HEVLTVHNKAFRKYLSCIFR,inactive
19,HFCYYMCFEWLDTIVAYYLG,-0.337 ± 1.1
20,HFFSSSSMRMYTSYSPLVMW,0.215 ± 0.42
21,HFKSSKECSKWVGICREEGR,0.338 ± 0.46
22,HFLVHFVFDLIRCVLAFVYC,0.61 ± 0.12

row,Substance,amyloid nucleation score
1,HFRVMHSFQGQYKVIFK,2.73 ± 0.098
2,HFSDIRAFCFPCNPIMRVMK,-0.406 ± 0.56
3,HGAVRSLSGGHIDRELVCD,0.566 ± 0.74
4,HGGFRDFQSLSVPIRYDLYD,1.14 ± 0.2
5,HGGSVWRRHSVFNAICISSS,1.11 ± 0.18
6,HGSFAIMP,-0.529 ± 0.45
7,HGVMKISTCYFGGKESYYVE,-0.206 ± 0.76
8,HGYSVFYAVYAEGEMNIINA,-0.172 ± 1.1
9,HGYSWVVI,0.019 ± 0.19
10,HHATKNFCTLFCLKSWGRFS,7.767 ± 0.059
11,HHHLRQVLGESQYLSCLWIK,0.388 ± 0.47
12,HHMKGAGPNNLFPGDPSGAR,3.46 ± 0.065
13,HHNPGVWMKGSPCMWKIVQI,4.76 ± 0.076
14,HHNTCKGM,4.35 ± 0.062
15,HHRGMIMLHNINYLRSFNAT,-0.465 ± 0.44
16,HHVEGMGYFLS,0.175 ± 0.25
17,HHVGGMTV,0.691 ± 0.8
18,HIARCNNWNACLMSRRHNCW,3.6 ± 0.061
19,HIHSKQIRVFNFSNFLEQIY,6.113 ± 0.033

# From the supplement of paper PMC12042874
